Among the data in US20200362049A1 are Kd values, retold here.

The experiment addresses Recombinant, Histidine-tagged extracellular domain of human CD38 (human) (UniProt P28907). As to the kind of experiment: BLI (Forte Bio), 1:1 fit.

In the case of “IB4, reference monoclonal agonistic mouse anti-human CD38 antibody”, the dissociation constant Kd was found to be 9 nM.

Broadly, the Kd is the concentration at which binding is half-saturated.
